Test results: article PMC2115537
pKd: −log10 of the molar value.

Molecular target: F-actin (rabbit skeletal muscle actin filaments) (rabbit) (UniProt P68135)
Test: co-sedimentation

Row | Substance | initial Kd (bivalent cooperativity model) [µM] | pKd
1 | 29-kD NH2-terminal fragment of synapsin I (domain or fragment) | 168 | 
2 | 40-kD NH2-terminal/middle fragment of synapsin I (domain or fragment) |  | 5.89
3 | dephosphorylated 51/54-kD middle/tail fragment of synapsin I (domain or fragment) |  | 6.22
4 | phosphorylated 51/54-kD middle/tail fragment of synapsin I (domain or fragment) |  | 5.77
